What was measured:
P5mS = molecular target: T1, P5mS; assay: two-hybrid library CC1;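 also: natural log of median RNA to DNA barcode read ratio; higher means stronger binding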
T1 chain: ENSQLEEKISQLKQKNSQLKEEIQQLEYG

P7 = molecular target: T2, P7; assay: two-hybrid library CC1; settings: mean of both orientations;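 also: natural log of median RNA to DNA barcode read ratio; higher means stronger binding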
T2 chain: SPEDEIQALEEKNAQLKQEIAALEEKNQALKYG

P6SC1 = molecular target: T3, P6SC1; assay: two-hybrid library CC1; settings: mean of both orientations;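 also: natural log of median RNA to DNA barcode read ratio; higher means stronger binding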
T3 chain: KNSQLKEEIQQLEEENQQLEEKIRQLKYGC

P6SC2 = molecular target: T4, P6SC2; assay: two-hybrid library CC1; settings: mean of both orientations;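 also: natural log of median RNA to DNA barcode read ratio; higher means stronger binding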
T4 chain: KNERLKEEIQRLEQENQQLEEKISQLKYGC

P9 = molecular target: T5, P9; assay: two-hybrid library CC1; settings: mean of both orientations;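 also: natural log of median RNA to DNA barcode read ratio; higher means stronger binding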
T5 chain: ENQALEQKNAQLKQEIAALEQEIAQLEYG

P8mS = molecular target: T6, P8mS; assay: two-hybrid library CC1; settings: mean of both orientations;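 also: natural log of median RNA to DNA barcode read ratio; higher means stronger binding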
T6 chain: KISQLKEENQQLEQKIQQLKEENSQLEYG

P8 = molecular target: T7, P8; assay: two-hybrid library CC1; settings: mean of both orientations
T7 chain: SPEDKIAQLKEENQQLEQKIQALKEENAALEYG

P7mS = molecular target: T8, P7mS; assay: two-hybrid library CC1; settings: mean of both orientations
T8 chain: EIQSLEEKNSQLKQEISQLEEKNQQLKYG

P6 = molecular target: T9, P6; assay: two-hybrid library CC1; settings: mean of both orientations
T9 chain: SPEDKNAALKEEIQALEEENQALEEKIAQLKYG

P6mS = molecular target: T10, P6mS; assay: two-hybrid library CC1; settings: mean of both orientations
T10 chain: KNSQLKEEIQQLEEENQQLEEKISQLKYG

4H_GCN4 = assay: two-hybrid library CCmax
4H_GCN4, sequence (chain, as listed by the source): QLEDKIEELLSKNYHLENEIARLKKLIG

O11-AA = molecular target: T11, O11-AA; assay: two-hybrid library CCmax; settings: mean of both orientations
T11 chain: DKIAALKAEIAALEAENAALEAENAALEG

4H3905-AA = molecular target: T12, 4H3905-AA; assay: two-hybrid library CCmax; settings: mean of both orientations
T12 chain: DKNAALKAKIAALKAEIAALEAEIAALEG

4H4038-AA = molecular target: T13, 4H4038-AA; assay: two-hybrid library CCmax; settings: mean of both orientations
T13 chain: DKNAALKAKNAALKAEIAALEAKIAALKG

4H43-AA = molecular target: T14, 4H43-AA; assay: two-hybrid library CCmax; settings: mean of both orientations
T14 chain: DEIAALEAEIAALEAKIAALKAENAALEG

4H510-AA = molecular target: T15, 4H510-AA; assay: two-hybrid library CCmax; settings: mean of both orientations
T15 chain: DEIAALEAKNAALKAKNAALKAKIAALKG

4H337-AA = molecular target: T16, 4H337-AA; assay: two-hybrid library CCmax
T16 chain: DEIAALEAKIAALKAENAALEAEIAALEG

4H_BCR = molecular target: T17, 4H_BCR; assay: two-hybrid library CCmax; settings: mean of both orientations
T17 chain: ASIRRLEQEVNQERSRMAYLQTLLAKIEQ

GCN2_T = assay: two-hybrid library CCmax
4H3625-AA = molecular target: T18, 4H3625-AA; assay: two-hybrid library CCmax; settings: mean of both orientations
T18 chain: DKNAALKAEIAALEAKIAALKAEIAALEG

4H451-AA = molecular target: T19, 4H451-AA; assay: two-hybrid library CCmax; settings: mean of both orientations
T19 chain: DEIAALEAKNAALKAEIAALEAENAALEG

4H384-AA = molecular target: T20, 4H384-AA; assay: two-hybrid library CCmax
T20 chain: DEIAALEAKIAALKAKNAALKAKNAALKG

O14-AA = molecular target: T21, O14-AA; assay: two-hybrid library CCmax; settings: mean of both orientations
T21 chain: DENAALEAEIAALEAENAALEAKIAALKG

O13-AA = molecular target: T22, O13-AA; assay: two-hybrid library CCmax; settings: mean of both orientations
T22 chain: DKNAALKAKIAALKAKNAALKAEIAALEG

4H3590-AA = molecular target: T23, 4H3590-AA; assay: two-hybrid library CCmax; settings: mean of both orientations
T23 chain: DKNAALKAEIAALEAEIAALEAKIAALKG

4H3587-AA = molecular target: T24, 4H3587-AA; assay: two-hybrid library CCmax; settings: mean of both orientations
T24 chain: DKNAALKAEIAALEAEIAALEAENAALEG

4H_APH = molecular target: T25, 4H_APH; assay: two-hybrid library CCmax; settings: mean of both orientations
T25 chain: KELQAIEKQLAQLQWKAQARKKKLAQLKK

**Q.** ENSQLEEKISQLKQKNSQLKEEIQQLEYG [P5mS] was tested. Which interaction score (P5mS) did it give?
**A.** Its interaction score is -3.02.

**Q.** And the interaction score (P7)?
**A.** Its interaction score is -2.73.

**Q.** And the interaction score (P6SC1)?
**A.** Its interaction score is 0.104.

**Q.** And the interaction score (P6SC2)?
**A.** Its interaction score is 0.207.

**Q.** And the interaction score (P9)?
**A.** The interaction score was -2.67.

**Q.** And the interaction score (P8mS)?
**A.** The interaction score was -2.74.

**Q.** And the interaction score (P8)?
**A.** The interaction score was -2.02.

**Q.** And the interaction score (P7mS)?
**A.** The interaction score was -2.67.

**Q.** And the interaction score (P6)?
**A.** The interaction score was 0.124.

**Q.** What about the interaction score (P6mS) of the same binder?
**A.** Its interaction score is -0.205.

**Q.** What does the source list for DEIAALEAKIAALKAENAALEAEIAALEG [4H337-AA]?
**A.** interaction score (4H_GCN4): -1.01; interaction score (O11-AA): -0.88; interaction score (4H3905-AA): -0.0231; interaction score (4H4038-AA): 2.08; interaction score (4H43-AA): -0.783; interaction score (4H510-AA): 1.23; interaction score (4H337-AA): -0.119; interaction score (4H_BCR): -0.845; interaction score (GCN2_T): -1.48; interaction score (4H3625-AA): -0.713; interaction score (4H451-AA): -0.516; interaction score (4H384-AA): 1.88; interaction score (O14-AA): 1.85; interaction score (O13-AA): 0.869; interaction score (4H3590-AA): 0.707; interaction score (4H3587-AA): -1.2; interaction score (4H_APH): -1.22

— paper PMC10397247
